From the Human Domainome abundance scans (Beltran et al. 2025) come the findings set out here.

± gives the uncertainty stated by the source.

The nature of the data set: abundance fitness (aPCA) (normalised: wild type 0, dead -1); higher = more abundant; growth selection in yeast, the domain comes from the species named. Conditions: Homo sapiens.
Turning to “SAFB-like transcription modulator D62L, Q9NWH9”, the abundance fitness was -0.46 ± 0.047.
In the case of “SAFB-like transcription modulator D62M, Q9NWH9” it was -0.69 ± 0.081; in that of “SAFB-like transcription modulator D62N, Q9NWH9”, -0.089 ± 0.05; in that of “SAFB-like transcription modulator D62P, Q9NWH9”, -0.474 ± 0.076.
As for “SAFB-like transcription modulator D62Q, Q9NWH9”, the abundance fitness was -0.334 ± 0.079.
In the case of “SAFB-like transcription modulator D62R, Q9NWH9” it was -0.331 ± 0.052.
In the case of “SAFB-like transcription modulator D62S, Q9NWH9”, the abundance fitness was -0.191 ± 0.046.
As for “SAFB-like transcription modulator D62T, Q9NWH9”, the figure is -0.212 ± 0.066; as for “SAFB-like transcription modulator D62V, Q9NWH9”, -0.397 ± 0.039; as for “SAFB-like transcription modulator D62W, Q9NWH9”, -0.66 ± 0.045.
As for “SAFB-like transcription modulator D62Y, Q9NWH9”, the figure is -0.46 ± 0.064.
“SAFB-like transcription modulator D64A, Q9NWH9” displayed an abundance fitness of -0.12 ± 0.04.
In the case of “SAFB-like transcription modulator D64C, Q9NWH9” it was -0.166 ± 0.05; in that of “SAFB-like transcription modulator D64E, Q9NWH9”, -0.038 ± 0.034; in that of “SAFB-like transcription modulator D64F, Q9NWH9”, -0.144 ± 0.048.
For “SAFB-like transcription modulator D64G, Q9NWH9”, the abundance fitness was -0.09 ± 0.041.
In the case of “SAFB-like transcription modulator D64H, Q9NWH9” it was -0.124 ± 0.058.
In the case of “SAFB-like transcription modulator D64I, Q9NWH9” it was -0.28 ± 0.072.
As for “SAFB-like transcription modulator D64K, Q9NWH9”, the figure is -0.171 ± 0.058; as for “SAFB-like transcription modulator D64M, Q9NWH9”, -0.016 ± 0.04; as for “SAFB-like transcription modulator D64N, Q9NWH9”, 0.035 ± 0.037.
On to “SAFB-like transcription modulator D64P, Q9NWH9”, for which the abundance fitness is -0.519 ± 0.039.
With “SAFB-like transcription modulator D64R, Q9NWH9”, the abundance fitness was -0.23 ± 0.032.
In the case of “SAFB-like transcription modulator D64S, Q9NWH9” it was -0.113 ± 0.035; in that of “SAFB-like transcription modulator D64T, Q9NWH9”, -0.076 ± 0.04.
As for “SAFB-like transcription modulator D64V, Q9NWH9”, the figure is -0.317 ± 0.045; as for “SAFB-like transcription modulator D64W, Q9NWH9”, -0.068 ± 0.046; as for “SAFB-like transcription modulator E33A, Q9NWH9”, -0.455 ± 0.068.
Substance “SAFB-like transcription modulator E33C, Q9NWH9” showed an abundance fitness of -0.68 ± 0.1.
In the case of “SAFB-like transcription modulator E33D, Q9NWH9” it was -0.916 ± 0.16; in that of “SAFB-like transcription modulator E33F, Q9NWH9”, -0.645 ± 0.049; in that of “SAFB-like transcription modulator E33G, Q9NWH9”, -0.974 ± 0.086.
In the case of “SAFB-like transcription modulator E33H, Q9NWH9” it was -0.512 ± 0.13; in that of “SAFB-like transcription modulator E33K, Q9NWH9”, -0.89 ± 0.18.
In turn, “SAFB-like transcription modulator E33L, Q9NWH9” gave an abundance fitness of -0.123 ± 0.061.
Regarding “SAFB-like transcription modulator E33M, Q9NWH9”, the abundance fitness is -0.007 ± 0.083.
In turn, “SAFB-like transcription modulator E33N, Q9NWH9” yielded an abundance fitness of -0.755 ± 0.1.
Take “SAFB-like transcription modulator E33P, Q9NWH9”: the abundance fitness is -1.16 ± 0.2.
In the case of “SAFB-like transcription modulator E33Q, Q9NWH9” it was -0.111 ± 0.079; in that of “SAFB-like transcription modulator E33R, Q9NWH9”, -0.961 ± 0.077.
In the case of “SAFB-like transcription modulator E33S, Q9NWH9” it was -0.353 ± 0.078; in that of “SAFB-like transcription modulator E33T, Q9NWH9”, -1.08 ± 0.17.
As for “SAFB-like transcription modulator E33V, Q9NWH9”, the figure is -0.917 ± 0.094; as for “SAFB-like transcription modulator E33W, Q9NWH9”, -0.871 ± 0.1; as for “SAFB-like transcription modulator E57A, Q9NWH9”, -0.085 ± 0.082.
Substance “SAFB-like transcription modulator E57C, Q9NWH9” came in with an abundance fitness of -0.192 ± 0.096.
In the case of “SAFB-like transcription modulator E57D, Q9NWH9” it was -0.164 ± 0.086.
As for “SAFB-like transcription modulator E57G, Q9NWH9”, the figure is -0.204 ± 0.044; as for “SAFB-like transcription modulator E57H, Q9NWH9”, 0.063 ± 0.16; as for “SAFB-like transcription modulator E57I, Q9NWH9”, 0.048 ± 0.39.
In turn, “SAFB-like transcription modulator E57K, Q9NWH9” returned an abundance fitness of -0.159 ± 0.11.
As for “SAFB-like transcription modulator E57L, Q9NWH9”, the figure is -0.049 ± 0.071.
As for “SAFB-like transcription modulator E57M, Q9NWH9”, the figure is -0.164 ± 0.094; as for “SAFB-like transcription modulator E57Q, Q9NWH9”, -0.667 ± 0.25.
As for “SAFB-like transcription modulator E57R, Q9NWH9”, the figure is 0.034 ± 0.06; as for “SAFB-like transcription modulator E57S, Q9NWH9”, -0.031 ± 0.056.
In turn, “SAFB-like transcription modulator E57T, Q9NWH9” returned an abundance fitness of -0.122 ± 0.079.
As for “SAFB-like transcription modulator E57V, Q9NWH9”, the figure is -0.064 ± 0.063; as for “SAFB-like transcription modulator E57W, Q9NWH9”, -0.124 ± 0.059; as for “SAFB-like transcription modulator E57Y, Q9NWH9”, -0.319 ± 0.11.
As for “SAFB-like transcription modulator E58A, Q9NWH9”, the figure is -0.026 ± 0.06.
With “SAFB-like transcription modulator E58C, Q9NWH9”, the abundance fitness is -0.113 ± 0.064.
In the case of “SAFB-like transcription modulator E58D, Q9NWH9” it was -0.444 ± 0.15; in that of “SAFB-like transcription modulator E58F, Q9NWH9”, -0.105 ± 0.054; in that of “SAFB-like transcription modulator E58G, Q9NWH9”, -0.021 ± 0.051.
Regarding “SAFB-like transcription modulator E58H, Q9NWH9”, the abundance fitness came to 0.147 ± 0.084.
In the case of “SAFB-like transcription modulator E58K, Q9NWH9” it was -0.134 ± 0.084; in that of “SAFB-like transcription modulator E58L, Q9NWH9”, -0.036 ± 0.036.
As for “SAFB-like transcription modulator E58M, Q9NWH9”, the figure is 0.008 ± 0.071.
In the case of “SAFB-like transcription modulator E58N, Q9NWH9” it was -0.068 ± 0.077; in that of “SAFB-like transcription modulator E58P, Q9NWH9”, -0.867 ± 0.12; in that of “SAFB-like transcription modulator E58Q, Q9NWH9”, -0.014 ± 0.077.
Regarding “SAFB-like transcription modulator E58R, Q9NWH9”, the abundance fitness was 0.028 ± 0.034.
In the case of “SAFB-like transcription modulator E58S, Q9NWH9” it was 0.024 ± 0.053.
With “SAFB-like transcription modulator E58T, Q9NWH9”, the abundance fitness was -0.043 ± 0.067.
In the case of “SAFB-like transcription modulator E58V, Q9NWH9” it was -0.074 ± 0.06; in that of “SAFB-like transcription modulator E58W, Q9NWH9”, -0.52 ± 0.076.
The substance “SAFB-like transcription modulator E58Y, Q9NWH9” had an abundance fitness of -0.342 ± 0.076.
In turn, “SAFB-like transcription modulator E59C, Q9NWH9” yielded an abundance fitness of -0.404 ± 0.037.
In the case of “SAFB-like transcription modulator E59D, Q9NWH9” it was -0.225 ± 0.087.
As for “SAFB-like transcription modulator E59F, Q9NWH9”, the figure is -0.924 ± 0.07; as for “SAFB-like transcription modulator E59G, Q9NWH9”, -0.226 ± 0.044.
In the case of “SAFB-like transcription modulator E59I, Q9NWH9” it was -0.784 ± 0.1; in that of “SAFB-like transcription modulator E59K, Q9NWH9”, -0.653 ± 0.13; in that of “SAFB-like transcription modulator E59L, Q9NWH9”, -0.794 ± 0.041.
Turning to “SAFB-like transcription modulator E59N, Q9NWH9”, the abundance fitness was -0.275 ± 0.056.
In the case of “SAFB-like transcription modulator E59P, Q9NWH9” it was -0.768 ± 0.05; in that of “SAFB-like transcription modulator E59Q, Q9NWH9”, -0.336 ± 0.078.
Consider “SAFB-like transcription modulator E59R, Q9NWH9”, for which the abundance fitness was -0.532 ± 0.054.
“SAFB-like transcription modulator E59T, Q9NWH9” gave an abundance fitness of -0.323 ± 0.073.
In the case of “SAFB-like transcription modulator E59V, Q9NWH9” it was -0.459 ± 0.052.
